B1: Alexa Fluor 555-His-TvFACPα (natural protein)
chain: MSESENIKIIKTFLANAPPGEYEQCTAALRSIVNDEDLINRARSETLKTWAEEECIVVDVEDHKVIICKEACQRDGIYVDPVTSSLITYDFESRIATPIGDQANMSDFAKELQEELTAYAKNAYKENAAAGVYDTNNGIVIVLRGSSISLKNFRTGKTVAKYTLSKSGSLEGKIVSIQHFFEKGNAVCQHDGDCNTTCSFGDAKSVVKAIRTFEDEWLADYKTTLEKIGTNVLFQLRRKFPYSKQKINWQQEITVGGGMKC
modifications: Alexa Fluor 555 maleimide label (residue not stated)
notes: T. vaginalis F-actin capping protein subunit α (TvFACPα), TVAG_470230, 267 amino acids; m6 after dye labelling; source: recombinant from pET28-His-TvFACPα, purified, labelled with Alexa Fluor 555 maleimide
B2: HA-TvFACPα (natural protein)
chain: B1 chain
notes: T. vaginalis F-actin capping protein subunit α (TvFACPα), TVAG_470230, 267 amino acids; source: transgenic T. vaginalis TH17 trophozoites (Flp-HA-TvFACPα plasmid), overexpressed, in lysate
B3: α-actin (endogenous T. vaginalis) (natural protein)
chain: not shown
notes: T. vaginalis α-actin detected by anti-α-actin antibody; other actin genes of the parasite may be detected too; also called F-actin; TvActin; source: endogenous, T. vaginalis TH17 lysate

In assay [1] the target is T1, tagless recombinant TvActin (rTvActin) (Trichomonas vaginalis, UniProt P90623 1-376).
T1 construct: T. vaginalis α-actin (TvActin), TVAG_337240; Monomeric (G-) in G-buffer, polymerised (F-) in F-buffer; the assay's format tells which; 10% pyrene-labelled in the pyrene assay and 10% Alexa Fluor 488-labelled in TIRF microscopy; also called G-rTvActin; F-rTvActin; source: E. coli BL21, GST-TvActin cleaved with thrombin, purified (heparin-Sepharose, Sephacryl S-300 gel filtration)
Kind of assay: TIRF microscopy; 6 μM G-rTvActin (10% Alexa Fluor 488-labelled) polymerising in TIRF buffer on NEM-myosin II-coated flow cell with 300 nM His-TvFACPα; Alexa Fluor 555-His-TvFACPα seen at the barbed end. The note with it: both partners purified.

Assay [2] addresses B3. Kind of assay: co-sedimentation; actin fractionation of trophozoite lysates (Cytoskeleton Inc. kit): 100,000 × g for 1 h, F-actin and associated proteins in the pellet; Western blotting; nontransgenic and transgenic TH17, flagellate and amoeboid forms, DMSO or TBB, T1 isolate. The note with it: partners not purified. (A western blot detects proteins with antibodies after separation by electrophoresis.)

In the next assay the target is T2, HA-TvFACPα(S2A) (Trichomonas vaginalis, UniProt A2FE30 1-261, S2A).
T2 construct: T. vaginalis F-actin capping protein subunit α (TvFACPα), TVAG_470230; source: transgenic T. vaginalis TH17 trophozoites (Flp-HA-TvFACPα(S2A) plasmid), overexpressed, in lysate
T2 sequence: B1 chain with S2A
Kind of assay: co-IP; anti-HA agarose beads on lysates of TH17 trophozoites overexpressing HA-TvFACPα or its mutants (1% Triton X-100, 5 mM EDTA in TBS, 4°C overnight); Western blotting for α-actin and α-actinin; also after DMSO or TBB (CKII inhibitor) treatment. Particulars: partners not purified.

Positions count from the first letter of the chain named.

On to B1, for which the binding result in assay [1] is listed as “binds”.

As to B2, the “fold change of cosedimented level against endogenous TvFACPα in the nontransfectant” value in assay [2] is ~2 fold.

For the molecule B3, the “fold change of coimmunoprecipitated α-actin signal against HA-TvFACPα” value with HA-TvFACPα(S2A) came to 3 fold.

(Values after article PMC10434240, “An Atypical F-Actin Capping Protein Modulates Cytoskeleton Behaviors Crucial for Trichomonas vaginalis Colonization” (Microbiology Spectrum, 2023).)
